Paper PMC7465229

test system: H5N1 influenza A virus, whole virion (hemagglutinin presumed target) (Influenza A virus H5N1 (A/wild duck/Korea/SNU50-5/2011)); test: rGO fluorescence recovery; settings: assay buffer, pH and temperature not stated ([…]

Row | Sequence | Kd [µM]
1 | ATGCGGATCCCGCGCGGGTCTGAGGAGTGCGCGGTGCCAGTGAGTGCGCGAAGCTTGCGC [HBA2] | 0.122
2 | CCGCGCGGGTCTGAGGAGTGCGCGG [tHBA2] | 1.32
3 | ATGCGGATCCCGCGCGCGACCGTGTCAGCGGGGACTAGCGGTGTAGCGCGAAGCTTGCGC [HBA1] | 0.0701
4 | GACCGTGTCAGCGGGGACTAGCGGTG [tHBA1] | 0.492
